Our source for the Kd values is patent US20150299252A1.

Where no end group is shown, it is not given here.

The target of the test is T1, Fc-chimeric NKG2D, P26718.
T1 chain: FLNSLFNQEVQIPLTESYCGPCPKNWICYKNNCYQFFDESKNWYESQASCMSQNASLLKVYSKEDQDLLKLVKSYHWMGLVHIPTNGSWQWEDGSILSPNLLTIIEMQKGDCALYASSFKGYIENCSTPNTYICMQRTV

B1: biotinylated SVH1C (quadravalent, C-terminal ε-biotinyl-lysine amide) (peptide)
peptide: NPSHPLSGGGGS
chain: KKKK
modifications: not fully specified (some residues, C-terminus); also: quadravalent: four peptide copies on lysine scaffold
Regarding B1, the Kd – broadly, the free concentration of one partner at which half of the binding sites on the other are occupied at equilibrium, for simple one-to-one binding – is 1000 nM.
